Columns and labels:
[1] = molecular target: CheC (Thermotoga maritima) (UniProt Q9X006); test: ITC; conditions: cited from earlier work
[2] = molecular target: GST-CheD (B. subtilis) (UniProt P40404); test: pull-down
[3] = molecular target: T1, 6xHis-McpC cytoplasmic fragment (wild type, unmodified) (B. subtilis, UniProt P54576 298-655); test: pull-down
T1 sequence (looked up): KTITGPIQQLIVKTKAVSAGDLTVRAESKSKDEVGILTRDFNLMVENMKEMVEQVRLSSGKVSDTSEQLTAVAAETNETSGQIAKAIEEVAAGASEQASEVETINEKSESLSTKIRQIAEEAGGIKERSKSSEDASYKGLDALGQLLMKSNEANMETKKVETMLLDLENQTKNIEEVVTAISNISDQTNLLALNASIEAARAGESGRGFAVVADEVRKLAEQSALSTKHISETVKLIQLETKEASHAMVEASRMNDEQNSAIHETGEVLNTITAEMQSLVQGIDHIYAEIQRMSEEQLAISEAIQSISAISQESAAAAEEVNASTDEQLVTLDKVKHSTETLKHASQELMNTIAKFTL

Chain of CheC (Thermotoga maritima) (Q9X006 whole entry): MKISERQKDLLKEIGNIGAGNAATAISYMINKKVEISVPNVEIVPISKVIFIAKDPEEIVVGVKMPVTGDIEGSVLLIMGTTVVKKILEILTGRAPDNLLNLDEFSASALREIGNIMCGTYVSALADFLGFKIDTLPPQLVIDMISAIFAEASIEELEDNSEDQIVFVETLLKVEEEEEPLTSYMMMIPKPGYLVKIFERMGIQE

Question: Which Kd [1] does the source give for CheD (from UniProt Q9X005) here?
Answer: 1 µM

Question: For “Deamidated (Q609E) McpC cytoplasmic chemoreceptor fragment (from UniProt P54576 1-655) (domain or fragment)”, which Kd [2] is on record?
Answer: 117 µM

Question: What about the percent of chemoreceptor bound [2] of the same molecule?
Answer: 13.2%

B1: GST-CheD (enzyme, B. subtilis, UniProt P40404 1-166, looked up)
chain: MSTTEAVVIKVGIADVKIARFPDTIRTSGLGSCVGLVLYDKEKQTAGLVHVMLPDSTLSKTAELNRAKYADTAVQTTIDMLIEAGCRKFALKAKLAGGSEMFKFKSTNDLMKIGPRNVLAIKEQLSLFNIPIISEDTGGSSGRTIEFEPKSCMLHIRTVKQGEKTI
Question: For B1, which Kd [3] is on record?
Answer: 202 µM
